The source of these data is PMC4889239.

The target of the experiment is ataxia-telangiectasia mutated (ATM) kinase, full-length human (human) (UniProt Q13315). Kind of experiment: negative-stain single-particle electron microscopy. To be noted: remark: other sources report otherwise.

For “ataxia-telangiectasia mutated (ATM) kinase, full-length human, Q13315 1-3056”, the percent of the particles that are dimers (% of the particles) stood at 60.
